Columns and labels:
[1] = system: C[C@H]1O[C@@H](O[C@H]2[C@@H](O)C[C@H](O[C@H]3[C@@H](O)C[C@H](O[C@H]4CC[C@@]5(C)[C@H](CC[C@@H]6[C@@H]5CC[C@]5(C)[C@@H](C7=CC(=O)OC7)CC[C@]65O)C4)O[C@@H]3C)O[C@@H]2C)C[C@H](O)[C@@H]1O; test: purified protein, by the assay type; details: other: 37 °C, 3.2 mM ATP, 50 nM proteoliposome, modified Michaelis-Menten fit, pH 7.4
Description: The Chifflet method is a colorimetric method that measures the amount of free inorganic phosphate (Pi) through the formation of ammonium molybdate and Pi complex, which produces a strong absorbance at 850 nm. The absorbance was measured on a 96-well plate using a CLARIOstar microplate reader (BMG Labtech, Ortenberg, Germany). […] The final concentrations of the proteoliposome and ATP were maintained at 50 nM and 3.2 mM, respectively. Orthovanadate was used as a control and run in parallel to the samples. Finally, the kinetic curves for ATPase activity were fit to a modified Michaelis-Menten equation (Equation (1)) [83]. Igor 6.2 Pro software (Wavemetrics, Tigard, OR, USA) was used for data analysis.(1) V=VmaxS/Km+S+Vbasal where V = Rate of ATP hydrolysis; Vmax = Maximum velocity of ATP hydrolysis; [S] = Substrate concentration; Km = Michaelis–Menten constant; and Vbasal = basal ATPase activity.

[2] = system: C[C@]12CC[C@H](O)C[C@H]1CC[C@@H]1[C@@H]2C[C@@H](O)[C@]2(C)[C@@H](C3=CC(=O)OC3)CC[C@]12O; test: purified protein, by the assay type; details: other: 37 °C, 3.2 mM ATP, 50 nM proteoliposome, modified Michaelis-Menten fit, pH 7.4

Chain of wild-type mouse Pgp (MDR3) (Mus musculus) (chain, as listed by the source): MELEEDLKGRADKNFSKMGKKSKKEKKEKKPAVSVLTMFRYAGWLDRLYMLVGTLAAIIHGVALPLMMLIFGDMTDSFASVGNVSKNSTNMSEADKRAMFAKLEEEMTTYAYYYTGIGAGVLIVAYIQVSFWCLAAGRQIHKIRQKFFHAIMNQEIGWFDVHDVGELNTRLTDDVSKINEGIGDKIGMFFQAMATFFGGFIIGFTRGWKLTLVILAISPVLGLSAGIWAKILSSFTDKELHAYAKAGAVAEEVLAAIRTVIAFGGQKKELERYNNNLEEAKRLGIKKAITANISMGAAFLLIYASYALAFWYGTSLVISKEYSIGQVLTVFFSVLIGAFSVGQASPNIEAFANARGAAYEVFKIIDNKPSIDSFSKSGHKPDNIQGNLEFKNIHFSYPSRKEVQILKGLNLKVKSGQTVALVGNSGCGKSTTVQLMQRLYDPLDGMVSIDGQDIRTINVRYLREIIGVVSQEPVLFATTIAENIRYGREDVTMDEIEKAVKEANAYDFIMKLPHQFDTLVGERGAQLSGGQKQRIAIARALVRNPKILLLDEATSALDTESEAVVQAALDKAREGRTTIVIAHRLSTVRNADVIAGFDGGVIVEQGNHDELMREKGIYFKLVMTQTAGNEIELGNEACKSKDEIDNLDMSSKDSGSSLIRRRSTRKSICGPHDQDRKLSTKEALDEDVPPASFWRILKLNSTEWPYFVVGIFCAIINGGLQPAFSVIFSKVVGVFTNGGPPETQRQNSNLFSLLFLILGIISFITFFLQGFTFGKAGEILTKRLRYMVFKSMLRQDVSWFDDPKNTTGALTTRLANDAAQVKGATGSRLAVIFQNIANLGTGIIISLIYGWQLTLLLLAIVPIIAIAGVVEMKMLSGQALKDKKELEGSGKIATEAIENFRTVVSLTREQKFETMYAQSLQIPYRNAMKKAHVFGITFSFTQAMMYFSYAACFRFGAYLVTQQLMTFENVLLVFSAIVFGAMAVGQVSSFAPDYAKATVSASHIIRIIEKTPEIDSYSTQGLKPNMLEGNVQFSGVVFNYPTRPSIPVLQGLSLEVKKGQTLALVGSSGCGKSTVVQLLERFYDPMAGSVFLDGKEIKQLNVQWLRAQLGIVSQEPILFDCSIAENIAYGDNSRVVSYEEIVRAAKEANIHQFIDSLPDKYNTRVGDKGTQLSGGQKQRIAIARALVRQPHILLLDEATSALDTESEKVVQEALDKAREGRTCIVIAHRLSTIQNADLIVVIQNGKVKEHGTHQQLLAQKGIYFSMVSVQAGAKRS

Substance: wild-type mouse Pgp (MDR3) (Mus musculus)
- Km [1]: 99.19 ± 13.3 µM
- Km [2]: 426.82 ± 173.26 µM
- Vmax [2]: 541.92 ± 111 nmol/min/mg

Source: PMC12386283, “Elucidating the Complex Structural and Molecular Mechanisms Driving P-Glycoprotein-Mediated Transport of Cardiac Glycosides” (International Journal of Molecular Sciences, 2025)
